# In US5741673, “Nucleic acid encoding a novel homeobox factor which stimulates insulin expression in pancreatic islet cells” (Research Development Foundation):
# B1: somatostatin TSE I (dsDNA)
# DNA 1: TTGCGAGGCTAATGGTGCG
# DNA 2: CGCACCATTAGCCTCGCAA
# B2: somatostatin TSE II (dsDNA)
# DNA 1: GATCTCAGTAATAATCATGCAG
# DNA 2: CTGCATGATTATTACTGAGATC
# B3: rat insulin I FLAT (E2) (dsDNA)
# DNA 1: TTAATAATCTAATTACCC
# DNA 2: GGGTAATTAGATTATTAA
# B4: rat insulin I P-Box (dsDNA)
# DNA 1: CTTAATGGGCCAAACGGCA
# DNA 2: TGCCGTTTGGCCCATTAAG
# Columns and labels:
# [1] = biological target: T1, ITF-1 full length (CMV expression) (rat, UniProt P52947 SEQ:1-283); assay: cell_activity; TSE I somatostatin reporter in HeLa cells
# T1 sequence (P52947 whole entry): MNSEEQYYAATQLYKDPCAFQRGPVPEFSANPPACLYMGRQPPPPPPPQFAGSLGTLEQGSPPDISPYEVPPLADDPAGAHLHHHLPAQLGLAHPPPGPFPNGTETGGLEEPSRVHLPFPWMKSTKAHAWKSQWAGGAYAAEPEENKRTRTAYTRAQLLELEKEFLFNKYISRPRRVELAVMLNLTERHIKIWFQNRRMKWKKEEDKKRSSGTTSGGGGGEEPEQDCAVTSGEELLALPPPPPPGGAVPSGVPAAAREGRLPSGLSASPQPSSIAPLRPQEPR
# [2] = biological target: T1, ITF-1 full length (CMV expression); assay: cell_activity; TSE II somatostatin reporter in HeLa cells
# [3] = biological target: ITF-1 fragment aa 124-283 (thrombin-cleaved from GST fusion) (rat, UniProt P52947 SEQ:124-283); assay: footprint; DNase I; also bound in EMSA; details: tags: GST removed by thrombin
# Sequence of ITF-1 fragment aa 124-283 (thrombin-cleaved from GST fusion) (P52947 124-283): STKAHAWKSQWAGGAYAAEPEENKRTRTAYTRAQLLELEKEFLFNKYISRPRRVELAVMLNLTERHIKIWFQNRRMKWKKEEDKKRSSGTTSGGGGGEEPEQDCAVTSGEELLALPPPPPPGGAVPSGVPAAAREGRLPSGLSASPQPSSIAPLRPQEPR
Binder,binding result [3],also measured
B1,,activity [1]: ~12 fold
B2,,activity [2]: ~12 fold
B3,binds,
B4,binds,
